Assay results from paper PMC10539340, “A common human MLKL polymorphism confers resistance to negative regulation by phosphorylation” (Nature Communications, 2023).
Positions count from the first letter of the chain named. Names and notes keep the numbering of the source.

B1: Recombinant full-length human MLKL (residue 2-471), wild type (natural protein, UniProt Q8NB16 2-471, looked up)
chain: ENLKHIITLGQVIHKRCEEMKYCKKQCRRLGHRVLGLIKPLEMLQDQGKRSVPSEKLTTAMNRFKAALEEANGEIEKFSNRSNICRFLTASQDKILFKDVNRKLSDVWKELSLLLQVEQRMPVSPISQGASWAQEDQQDADEDRRAFQMLRRDNEKIEASLRRLEINMKEIKETLRQYLPPKCMQEIPQEQIKEIKKEQLSGSPWILLRENEVSTLYKGEYHRAPVAIKVFKKLQAGSIAIVRQTFNKEIKTMKKFESPNILRIFGICIDETVTPPQFSIVMEYCELGTLRELLDREKDLTLGKRMVLVLGAARGLYRLHHSEAPELHGKIRSSNFLVTQGYQVKLAGFELRKTQTSMSLGTTREKTDRVKSTAYLSPQELEDVFYQYDVKSEIYSFGIVLWEIATGDIPFQGCNSEKIRKLVAVKRQQEPLGEDCPSELREIIDECRAHDPSVRPSVDEILKKLSTFSK
notes: Bacmids were made from pFastBac Htb vectors; also called MLKL^WT; hMLKL; source: Sf21 insect cells, purified (glutathione agarose, size-exclusion chromatography)
B2: Recombinant full-length human MLKL (residue 2-471) S132P (natural protein, UniProt Q8NB16 2-471, looked up)
chain: B1 chain with S131P
notes: human MLKL, residues 2-471, with the natural polymorphism p.Ser132Pro; Bacmids were made from pFastBac Htb vectors; also called MLKL^S132P; p.Ser132Pro; source: Sf21 insect cells, purified (glutathione agarose, size-exclusion chromatography)
B3: Recombinant full-length human MLKL (residue 2-471) S83D,S132P (natural protein, UniProt Q8NB16 2-471, looked up)
chain: B1 chain with S82D, S131P
notes: human MLKL, residues 2-471, compound mutant of the phosphomimetic S83D and the polymorphism S132P; Bacmids were made from pFastBac Htb vectors; also called MLKL^(S83D, S132P); MLKL^S83D,S132P; source: Sf21 insect cells, purified (glutathione agarose, size-exclusion chromatography)
B4: Recombinant full-length human MLKL (residue 2-471) S83D (natural protein, UniProt Q8NB16 2-471, looked up)
chain: B1 chain with S82D
notes: human MLKL, residues 2-471, with the phosphomimetic S83D; Bacmids were made from pFastBac Htb vectors; also called MLKL^S83D; source: Sf21 insect cells, purified (glutathione agarose, size-exclusion chromatography)

Molecular target: the molecule itself
Assay: SEC; HiLoad 16/600 Superdex 200 pg column after glutathione agarose; fractions at elution volume 55-63 ml taken as tetramers and pooled

Protein | stoichiometry N
B1 | 4
B2 | 4
B3 | 4
B4 | 4
